Source: the Immune Epitope Database (IEDB)

How the values were obtained:
[1] = biological target: HLA-A*02:01; assay: IEDB peptide-MHC binding, purified MHC/competitive/fluorescence; ≥ and ≤ were set here for values at or beyond the usual limits of such assays
[2] = biological target: HLA-B*08:01; assay: IEDB peptide-MHC binding, purified MHC/competitive/radioactivity; filed as Kd, often an IC50 or EC50 that approximates it; ≥ and ≤ were set here for values at or beyond the usual limits of such assays
[3] = biological target: HLA-A*32:01; assay: as above
[4] = biological target: HLA-B*40:01; assay: as above; conditions: source organism: Dengue virus 1 Brazil/97-11/1997
[5] = biological target: HLA-B*44:02; assay: as above; conditions: source organism: Dengue virus 1 Brazil/97-11/1997
[6] = biological target: HLA-B*44:03; assay: as above; conditions: source organism: Dengue virus 1 Brazil/97-11/1997
[7] = biological target: HLA-A*02:01; assay: IEDB peptide-MHC binding, purified MHC/direct/fluorescence; filed as Kd, often an IC50 or EC50 that approximates it; ≥ and ≤ were set here for values at or beyond the usual limits of such assays
[8] = biological target: HLA-A*69:01; assay: as above
[9] = biological target: HLA-A*01:01; assay: IEDB peptide-MHC binding, purified MHC/competitive/radioactivity; filed as Kd, often an IC50 or EC50 that approximates it; ≥ and ≤ were set here for values at or beyond the usual limits of such assays
[10] = biological target: HLA-A*03:01; assay: as above; conditions: source organism: SARS coronavirus Tor2
[11] = biological target: HLA-A*11:01; assay: as above; conditions: source organism: SARS coronavirus Tor2
[12] = biological target: HLA-A*23:01; assay: as above
[13] = biological target: HLA-A*24:02; assay: as above
[14] = biological target: HLA-A*26:01; assay: as above
[15] = biological target: HLA-A*29:02; assay: as above
[16] = biological target: HLA-A*30:02; assay: as above
[17] = biological target: HLA-A*31:01; assay: as above; conditions: source organism: SARS coronavirus Tor2
[18] = biological target: HLA-A*33:01; assay: as above; conditions: source organism: SARS coronavirus Tor2
[19] = biological target: HLA-A*68:01; assay: as above; conditions: source organism: SARS coronavirus Tor2
[20] = biological target: HLA-A*11:01; assay: IEDB peptide-MHC binding, purified MHC/direct/fluorescence; filed as Kd, often an IC50 or EC50 that approximates it; ≥ and ≤ were set here for values at or beyond the usual limits of such assays; conditions: source organism: SARS-CoV1
[21] = biological target: HLA-B*07:02; assay: as above; conditions: source organism: SARS-CoV1
[22] = biological target: HLA-B*15:01; assay: as above; conditions: source organism: Rickettsia conorii
[23] = source organism: Zaire ebolavirus
[24] = source organism: Dengue virus 3 Martinique/1243/1999
[25] = source organism: Vaccinia virus WR
[26] = source organism: Vaccinia virus Copenhagen
[27] = source organism: Vibrio vulnificus YJ016
[28] = source organism: SARS coronavirus Tor2
[29] = source organism: Mammarenavirus brazilense
[30] = source organism: Lassa virus Josiah
[31] = source organism: Rickettsia conorii

QFLLQLNET
IC50 [1, 23]: 16.1 µM

QLAYVVIGIL
Kd [2, 24]: ≥ 10 µM

QLLLMRTSW
Kd [3, 24]: 0.0104 µM

RGVNFAEGV
IC50 ([1]; source organism: Sudan ebolavirus): 32.9 µM

RILFRKPSL
Kd [2, 25]: 0.0322 µM

RPTIEKDVDL
Kd [2, 24]: 0.846 µM

RVRFFFPSL
IC50 ([1]; source organism: Homo sapiens): ≥ 200 µM

SEFNTYKRSG
Kd [4]: 8.76 µM | Kd [5]: 2.17 µM | Kd [6]: 7.05 µM

SIKMKLVSI
Kd [2, 26]: 0.0164 µM

SLGGHTVWQ
Kd [7, 27]: 8 µM | Kd [8, 27]: ≥ 20 µM

SLNLRIKIL
Kd [2, 25]: 0.092 µM

SLREISNIV
Kd [2, 25]: 0.0102 µM

SLRYSSKVF
Kd [2, 25]: 0.928 µM

SNAKCIEYV
IC50 [1, 26]: 53.6 µM

SNKRHRPIG
Kd [2, 25]: 0.0335 µM

SNSNRLMSI
Kd [2, 25]: 0.0101 µM

STFNRFTIV
Kd [2, 25]: 1.73 µM

STGNYNYKY
Kd [9, 28]: 0.388 µM | Kd [10]: ≥ 20.4 µM | Kd [11]: 0.198 µM | Kd [12, 28]: ≥ 77.8 µM | Kd [13, 28]: ≥ 77.6 µM | Kd [14, 28]: 15.6 µM | Kd [15, 28]: 0.0372 µM | Kd [16, 28]: 0.0245 µM | Kd [17]: ≥ 77.9 µM | Kd [18]: ≥ 77.7 µM | Kd [19]: 1.6 µM

SVYKHRLIV
Kd [2, 25]: 0.108 µM

TAIAGAWENG
Kd [3, 24]: ≥ 60.5 µM

TERSASGGVY
Kd [9, 29]: 1.71 µM | Kd [12, 29]: ≥ 44.9 µM | Kd [13, 29]: ≥ 70.3 µM | Kd [14, 29]: ≥ 54.6 µM | Kd [15, 29]: ≥ 55.5 µM | Kd [16, 29]: 1.01 µM

TGPCAGDFA
IC50 [1, 23]: ≥ 112 µM

TLVGVVVST
IC50 ([1]; source organism: Vaccinia virus): 55.4 µM

TMFKIVYSL
Kd [3, 25]: 0.000915 µM

TPSGTWLTY
Kd [20]: 4.57 µM | Kd [21]: 7.02 µM | Kd [9, 28]: ≥ 79.4 µM | Kd [12, 28]: ≥ 77.8 µM | Kd [13, 28]: ≥ 77.6 µM | Kd [14, 28]: 18.6 µM | Kd [15, 28]: 0.0555 µM | Kd [16, 28]: 11.8 µM

TTTIKPVSY
Kd [9, 28]: 0.286 µM | Kd [12, 28]: ≥ 77.8 µM | Kd [13, 28]: ≥ 77.6 µM | Kd [14, 28]: 0.36 µM | Kd [15, 28]: 0.0473 µM | Kd [16, 28]: 0.142 µM

TVATSRTLSY
Kd [9, 28]: 0.341 µM | Kd [12, 28]: ≥ 70 µM | Kd [13, 28]: ≥ 70.3 µM | Kd [14, 28]: 0.0779 µM | Kd [15, 28]: 0.1 µM | Kd [16, 28]: 0.822 µM

VAEMDGIQY
Kd [9, 28]: 0.0308 µM | Kd [12, 28]: ≥ 77.8 µM | Kd [13, 28]: ≥ 77.6 µM | Kd [14, 28]: 1.27 µM | Kd [15, 28]: 0.0583 µM | Kd [16, 28]: 0.0195 µM

VNPGTYVYF
IC50 ([1]; source organism: Variola virus): ≥ 186 µM

VYMPASWVM
Kd [9, 28]: ≥ 78.1 µM | Kd [12, 28]: 5.42 µM | Kd [13, 28]: 12.6 µM | Kd [14, 28]: ≥ 77.9 µM | Kd [15, 28]: 14.7 µM | Kd [16, 28]: ≥ 20.9 µM

VYSDVETPHL
Kd [9, 28]: 0.303 µM | Kd [12, 28]: 0.163 µM | Kd [13, 28]: 0.245 µM | Kd [14, 28]: ≥ 69.7 µM | Kd [15, 28]: 0.589 µM | Kd [16, 28]: 16.1 µM

YCNYSKYWYL
Kd [9, 30]: 9.73 µM | Kd [12, 30]: 1.15 µM | Kd [13, 30]: 4.44 µM | Kd [14, 30]: ≥ 69.7 µM | Kd [15, 30]: 10.8 µM | Kd [16, 30]: ≥ 22.7 µM

YFSDVSAPV
Kd [7, 31]: 0.0279 µM | Kd [8, 31]: 0.041 µM | Kd [22]: 0.705 µM
